Assay results published in the supplement of paper PMC10567573.
± gives the standard deviation.

Assay: protein stability index of a GFP-peptide fusion (GPS, HEK-293T) (PSI 1-6); higher = more stable
[1] = treatment: DMSO, c terminus: a fixed tail appended
[2] = treatment: MLN4924 1 uM, 8 h, c terminus: a fixed tail appended
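Further: 24-mer peptide tiles fused after GFP, lentivirally expressed, FACS-sorted into six equal bins by GFP/DsRed ratio, decoded by Illumina sequencing, PSI is the read-weighted mean bin number.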

| Sequence | protein stability index [1] | protein stability index [2] | protein stability index (treatment: DMSO, c terminus: native) | protein stability index (treatment: MLN4924 1 uM, 8 h, c terminus: native) |
| --- | --- | --- | --- | --- |
| SFRELLTFFCTNATIHGAIRLVCS [SCNN1D] | 2.85 ± 0.36 | 2.99 ± 0.39 |  |  |
| SFVDKLLDLMPRLMTSKPAEVVKI [INTS4] | 2.73 ± 0.64 | 2.61 ± 0.63 |  |  |
| SFVVLLYILDNETNFVVQVSVFIG [CLPTM1] | 3.15 ± 0.41 | 3.39 ± 0.56 |  |  |
| SGGQTSWDSGCLAPPSTRTSHSLP [PLEKHN1] | 4.1 ± 0.068 | 3.98 ± 0.21 |  |  |
| SGMTEVERTYSANCSDFLESKGCF [SPATS1] | 3.62 ± 0.24 | 3.62 ± 0.43 |  |  |
| SGPAASEHSHRSHHSLASSLRSHH [DVL3] | 3.92 ± 0.16 | 3.91 ± 0.33 |  |  |
| SGSGGTVAPATMGSARSHASSRAS [ZBTB22] | 4.77 ± 0.18 | 4.68 ± 0.24 |  |  |
| SGSGKSGGYGFGRGRASGFAGSMF [KRT71] | 2.8 ± 0.24 | 2.69 ± 0.41 |  |  |
| SIESIKWMIEEKATITSRGSSLSG [LURAP1L] | 3.1 ± 0.2 | 3.39 ± 0.41 |  |  |
| SIIECDMNVDFDAPLGYKEPERQV [UFD1] | 4.27 ± 0.22 | 4.31 ± 0.18 |  |  |
| SKARRKKIMIIICCVILGIVIAST [STX1A] | 2.69 ± 0.23 | 2.67 ± 0.33 |  |  |
| SKLLLSGTADGADLRTVDPETQAR [ANKRD17] | 5.08 ± 0.35 | 5.13 ± 0.26 |  |  |
| SLASASPPLSGRSTPKLTSRSAAQ [PPFIA4] | 4.5 ± 0.31 | 4.6 ± 0.14 |  |  |
| SLDESVIYGPGNLSTNNNTLRDHF [SLC2A12] | 3.63 ± 0.31 | 3.6 ± 0.27 |  |  |
| SLHDHDGSSGASDQDTLAPLPHPG [DVL3] | 5.33 ± 0.25 | 5.19 ± 0.33 |  |  |
| SLKRHLKTHTGEKPHRCHNCGKSF [ZNF449] | 2.91 ± 0.56 | 2.97 ± 0.15 |  |  |
| SLNGVYPRMNEVYTRLGEMNNAVR [CEP70] | 2.55 ± 0.21 | 3.08 ± 0.31 |  |  |
| SLREYNDFLEEVEEIVFNLTNNVD [MNAT1] | 2.6 ± 0.47 | 3.13 ± 0.44 |  |  |
| SNLLKAGFIRHTVNKITFSEQCYY [DVL3] | 2.3 ± 0.39 | 2.39 ± 0.3 |  |  |
| SNLSYHLEKNHPEEFCEFVKSNTE [ZBED1] | 4.72 ± 0.18 | 4.69 ± 0.29 |  |  |
| SPCLPEAEAMFAINADGVGDAKD [RAD51] |  |  | 5.38 ± 0.16 | 5.34 ± 0.14 |
| SPEVLRKDPYGKPVDLWACGVILY [CAMK2A] | 2.67 ± 0.56 | 2.49 ± 0.49 |  |  |
| SPEWDTVTPEAKNLINQMLTINPA [CAMK2B] | 3.84 ± 0.18 | 3.86 ± 0.21 |  |  |

| Sequence | protein stability index [1] | protein stability index [2] | protein stability index (treatment: DMSO, c terminus: native) | protein stability index (treatment: MLN4924 1 uM, 8 h, c terminus: native) |
| --- | --- | --- | --- | --- |
| SPFSPGLFHRLDEDWDSALFAELG [ATF6] | 2.6 ± 0.28 | 2.44 ± 0.16 |  |  |
| SPLTLAACGGHVELAALLIERGAS [ANKRD17] | 2.48 ± 0.33 | 2.48 ± 0.31 |  |  |
| SPLYADPYTPPATSHRRVTDVRGL [PLEKHN1] | 3.76 ± 0.35 | 3.63 ± 0.35 |  |  |
| SPRTRGSWSQPQPLKAPCLNGDTT [RASAL3] | 3.92 ± 0.11 | 4.03 ± 0.23 |  |  |
| SPSHSPEHRRTARRTPPGQQRPHP [ELOA2] | 5.06 ± 0.18 | 5.06 ± 0.22 |  |  |
| SQIHNNGQSDFRPKNGRHAWIWHD [LOXL2] | 3.31 ± 0.35 | 3.22 ± 0.22 |  |  |
| SQIQGHKEMSKVWNDLRPKLSCLF [SNX8] | 2.2 ± 0.35 | 2.22 ± 0.22 |  |  |
| SRARSASSPRGMVRVCDLLLKKKP [ANKRD17] | 3.61 ± 0.39 | 3.51 ± 0.4 |  |  |
| SRRIYRCRNCINLQNEAQKRESFL [IQUB] | 2.17 ± 0.42 | 2.24 ± 0.2 |  |  |
| SSCVKILLDHNANIDIQNGFLLRY [ASB7] | 2.47 ± 0.43 | 2.5 ± 0.24 |  |  |
| SSEEFEDKWFRKIKDHFCPFENQF [C8orf76] | 2.87 ± 0.19 | 2.74 ± 0.5 |  |  |
| SSFFQQFFHCYCPVGFGRRTDPNG [CRY1] | 2.42 ± 0.52 | 2.11 ± 0.27 |  |  |
| SSGPARGIAIVSVLVILISIVIFC [KCNA3] | 2.21 ± 0.21 | 2.21 ± 0.28 |  |  |
| SSKSDADSGFLGLRPTSVDPALRR [NOP53] | 4.51 ± 0.2 | 4.51 ± 0.22 |  |  |
| SSNHGCQHECVNTDDSYSCHCLKG [MATN2] | 4.95 ± 0.08 | 5.1 ± 0.2 |  |  |
| SSPGPWGLEALAGGDLMPAPADPT [FCHO1] | 4.78 ± 0.4 | 4.65 ± 0.23 |  |  |
| SSPRSVDSYSSTQHVPEELDLSSS [ATF6] | 5.29 ± 0.52 | 5.4 ± 0.24 |  |  |
| SSPSNMLPVRPQTNALIGGPMPMS [CLINT1] | 3.85 ± 0.22 | 3.7 ± 0.25 |  |  |
| SSQERKFMEERELLGQDEETAMRK [RSPH3] | 5.47 ± 0.38 | 5.51 ± 0.3 |  |  |
| SSRIEQGEWGGRHPSWPWTRCLRM | 2.5 ± 0.19 | 2.67 ± 0.38 |  |  |
| SSSEQLQCCQTEIIELRRTVNALE [KRT36] | 3.58 ± 0.12 | 3.34 ± 0.38 |  |  |
| SSSQKEESPSTLQVLPDSESLPRS [MAGEA10] | 5.36 ± 0.23 | 5.4 ± 0.16 |  |  |
| SSSSRVLLRQQLMRAQAQEQERRE [TFE3] | 4.87 ± 0.3 | 5.02 ± 0.22 |  |  |

| Sequence | protein stability index [1] | protein stability index [2] | protein stability index (treatment: DMSO, c terminus: native) | protein stability index (treatment: MLN4924 1 uM, 8 h, c terminus: native) |
| --- | --- | --- | --- | --- |
| SSSSSSSPTSGSPRGSHSSALERL [LURAP1L] | 4.83 ± 0.15 | 4.91 ± 0.14 |  |  |
| STCFTELQRDFLKQRPTKLKSLIR [OAS1] | 2.6 ± 0.17 | 2.66 ± 0.14 |  |  |
| STFIRRYSRYLNEKAFSYRQMAFD [SNAP91] | 2.11 ± 0.24 | 2.22 ± 0.28 |  |  |
| STSAVPNLFVPLNTNPKEVQEMRN [ADD1] | 4.53 ± 0.21 | 4.43 ± 0.28 |  |  |
| STSRHVMAPVMAHVDPEEPWSPCS [ADAMTS4] | 4.32 ± 0.14 | 4.41 ± 0.17 |  |  |
| SVAGWSLFSLNVISLTCVSVAFAV [SLC19A2] | 2.92 ± 0.15 | 3.21 ± 0.27 |  |  |
| SVDEQNALREVYAHAVLGQHSHVV [WEE1] | 3.42 ± 0.14 | 3.47 ± 0.33 |  |  |
| SVDPIAAFCSSDEELEDSKALLYL [RBBP5] | 3.94 ± 0.26 | 4.08 ± 0.36 |  |  |
| SVEEQLSLISGCPNIQEAVEGAMH [CRYL1] | 4.68 ± 0.17 | 4.64 ± 0.15 |  |  |
| SVLLGASNADQLMENIGAIQVLPK [KCNAB2] | 3.58 ± 0.095 | 3.6 ± 0.24 |  |  |
| SVNICGMNEHPVCSRTWTNRLCHQ [SPAG8] | 2.29 ± 0.26 | 2.36 ± 0.14 |  |  |
| SWLEENVHEVLQAVDAGDPAVEAC [TCF25] | 4.86 ± 0.14 | 4.84 ± 0.32 |  |  |
| SYQKPKEVVVAESELQKELKKVKT [DPCD] | 4.95 ± 0.36 | 5.25 ± 0.31 |  |  |
| TAHADEFDCPSELQHTQELFPQWH [STEAP1] | 3.79 ± 0.15 | 3.84 ± 0.07 |  |  |
| TCKASHITSSVFPSASLGKASSRK [FBXO34] | 3.62 ± 0.28 | 3.55 ± 0.2 |  |  |
| TDAHVWNKSVTLYTVKDKATGEVL [NLN] | 3.46 ± 0.6 | 3.36 ± 0.55 |  |  |
| TDKVGTEAAFHPIEEYMVHVEEHF [FUT8] | 4.07 ± 0.27 | 4.31 ± 0.33 |  |  |
| TDRPLLSTLEESVVRICCIRSFGH [SMG5] | 2.36 ± 0.24 | 2.08 ± 0.12 |  |  |
| TDSEHSDAEVSCTDNGTFNLSRGQ [RETREG3] | 5.24 ± 0.22 | 5.28 ± 0.22 |  |  |
| TEAGGVLMDVTGGPFDLMSRRVIA [IMPA1] | 3.22 ± 0.61 | 3.37 ± 0.42 |  |  |
| TEGPSLLNQKGTAVETEGSGSRHP [SLC2A12] | 5.43 ± 0.21 | 5.36 ± 0.43 |  |  |
| TEPSGRVAKKTPTKRSTLIISGVS [C2CD2L] | 3.76 ± 0.27 | 3.92 ± 0.34 |  |  |
| TEVVRDAVRKLKFARHIKKSEGQK [GULP1] | 3.65 ± 0.37 | 3.85 ± 0.29 |  |  |

| Sequence | protein stability index [1] | protein stability index [2] | protein stability index (treatment: DMSO, c terminus: native) | protein stability index (treatment: MLN4924 1 uM, 8 h, c terminus: native) |
| --- | --- | --- | --- | --- |
| TEYQIVTDPGDVPAFLKWLSLASL [SLC2A12] | 2.26 ± 0.35 | 2.16 ± 0.42 |  |  |
| TFIPLEPLPQIPNLPFWVKEKANS [SPATS1] | 2.81 ± 0.19 | 3.04 ± 0.15 |  |  |
| TGREMHGKNWSKLCKDCQVIDGRN [TPPP] | 3.14 ± 0.16 | 3.49 ± 0.11 |  |  |
| TGWARKGLGNTWPGASGSAQSLDR [ATP23] | 4.17 ± 0.26 | 4.09 ± 0.16 |  |  |
| TIGASFMTKTVQYQNELHKFLIWD [RAB22A] | 2.5 ± 0.45 | 2.01 ± 0.16 |  |  |
| TIRGEVMFFKDRFYMRTNPFYPEV [MMP1] | 2.2 ± 0.39 | 2.21 ± 0.12 |  |  |
| TISVNQTRVNLSSDTESTDLPSST [DLC1] | 4.11 ± 0.15 | 4.41 ± 0.23 |  |  |
| TITSEVIEKCTTPLSDDHDEKYGV [CRY1] | 5.21 ± 0.12 | 4.99 ± 0.22 |  |  |
| TKPLAIHPCGDKNCPAHWLAQDWE [ADAMTSL2] | 2.73 ± 0.79 | 2.73 ± 0.12 |  |  |
| TLAQFPETLLGDPEKRTQYFDPLR [KCNA4] | 3.5 ± 0.31 | 3.6 ± 0.36 |  |  |
| TLERYMCSRFFIDFPDILEQQRKL [TENT5C] | 2.35 ± 0.16 | 2.37 ± 0.037 |  |  |
| TLPLQDRELGPEELDELQAAFEEF [CABP4] | 5.27 ± 0.23 | 5.27 ± 0.24 |  |  |
| TLTREQTERLSHQITSRVVSAATQ [RTN2] | 3.68 ± 0.19 | 3.75 ± 0.13 |  |  |
| TMARIRRVYVSGLMKGGADLFVEN [APMAP] | 2.2 ± 0.3 | 2.07 ± 0.25 |  |  |
| TMLATRNFSAAKSLLKKPDGVKES [CAMK2D] | 4.36 ± 0.067 | 4.33 ± 0.51 |  |  |
| TMPLYLEDDIRPDIKDDIYDPTYK [SCD] | 4.46 ± 0.3 | 4.68 ± 0.17 |  |  |
| TNLPKGACALLLTSVDHDRAPVVG [DLC1] | 2.97 ± 0.17 | 2.85 ± 0.3 |  |  |
| TNRWSFDGIDRWIKEIDEHAPGVP [RAB40C] | 3.91 ± 0.17 | 3.97 ± 0.22 |  |  |
| TPAITVSNSCPAELPNIKREISET [TFE3] | 5.16 ± 0.35 | 4.86 ± 0.22 |  |  |
| TPAMSSSSSSRVLLRQQLMRAQAQ [TFE3] | 3.65 ± 0.26 | 3.66 ± 0.42 |  |  |
